The values that follow come from the RNAGym collection of RNA variant scans (doi:10.7554/elife.80360).

The labels stand for the following.
B1: Hairpin Ribozyme (parent)
chain: GUCCUCUUUCACGUGCGCGUGAAAGAGAGAAGUGAACCAGAGAAACACACGUUGUGGUAUAUUACCUGGUA

In this data set the parent is B1. Put plainly: self-cleavage, relative activity (ratio to wild type); higher = more cleavage; co-transcriptional.
With A31U A43U, the self-cleavage came to 0.0597.
Next, A31U U63C: 0.247; A30G U52G: 0.186.
In the case of G32A U58C, the self-cleavage amounted to 0.184.
Next, G32A U58G: 0.16; G32A U58A: 0.0567; A31C U70C: 0.0987.
Next, A31C U63G: 0.119; A31C U63C: 0.23.
As for A31G G42C, the figure is 0.278; as for A30G C38G, 0.149; as for A30G C38A, 0.0519.
As to A30G A35G, the self-cleavage stood at 0.125.
On to A30G A35C, for which the self-cleavage turned out to be 0.141.
For A30G A35U, the self-cleavage was 0.0439.
As for G32C C48G, the figure is 0.121; as for G32C C48A, 0.112; as for G32U A61U, 0.109.
As for G32C U70C, the figure is 0.234.
As for G32A C38A, the figure is 0.115; as for A30U A47U, 0.0724.
For the variant A31C A35U, the self-cleavage came to 0.181.
Next, A31C A35C: 0.069; A31U U70G: 0.27; A31U U70C: 0.0555.
In the case of A31G A61G, the self-cleavage stood at 0.118.
Next, A31U A47C: 0.109; A30G G54U: 0.123; G32U C38G: 0.125.
With G32U C38U, the self-cleavage was determined as 0.0994.
For the variant G32C G69C, the self-cleavage was 0.115.
Next, A31U C46G: 0.212.
As to G32U A41G, the self-cleavage came to 0.0256.
As for A30G G51A, the self-cleavage came out at 0.254.
Next, A31U U60C: 0.103; A30G A61U: 0.153.
For A30U C48U, the self-cleavage turned out to be 0.197.
As for G32C A47G, the figure is 0.0562.
As to G32C A47U, the self-cleavage is 0.0919.
As for A31U A61G, the figure is 0.159; as for G32A A64G, 0.142.
As to A31U A64C, the self-cleavage turned out to be 0.0924.
As for A31U U62A, the figure is 0.115.
Next, A31G U63G: 0.135; A31U G69C: 0.111.
As for G32U G40U, the figure is 0.152.
Take G32U G40C: the self-cleavage was 0.0975.
Regarding A31G U55C, the self-cleavage is 0.28.
On to G32C A43G, for which the self-cleavage turned out to be 0.0421.
As for G32C A43C, the figure is 0.23; as for G32C A43U, 0.127; as for A31C G56A, 0.148.
As for G32C A39U, the figure is 0.174.
As for A30G A39G, the figure is 0.127.
Turning to A30G A39C, the self-cleavage worked out at 0.106.
As for A31C A59G, the self-cleavage turned out to be 0.132.
Next, A31C A59C: 0.103; G32U A44C: 0.112.
As for G32U A44U, the self-cleavage came to 0.243.
For A30U U70G, the self-cleavage is 0.117.
Next, A31U G34A: 0.0803.
Next, A31U G68C: 0.175.
As for G32A U55A, the figure is 0.107; as for A31G G32U, 0.121.
In the case of A30U A44G, the self-cleavage stood at 0.064.
Next, A30U A44C: 0.0664.
In the case of A30U G51C, the self-cleavage was determined as 0.164.
As for A30U G51U, the figure is 0.193; as for G32A U53C, 0.243; as for G32A U53G, 0.146.
Next, A30G A45C: 0.267.
Take A30U C66A: the self-cleavage was 0.096.
As for A30U C66G, the figure is 0.165.
On to A30U G34U, for which the self-cleavage amounted to 0.805.
Next, A30U G34C: 0.42; G32U A71G: 0.214.
Turning to G32U A71C, the self-cleavage is 0.206.
Next, G32A G57A: 0.0905; A31G U62G: 0.199; G32A U33G: 0.137.
Next, G32U A47U: 0.121; G32U A47G: 0.0761.
As for A31C A61G, the figure is 0.0877; as for G32A A41C, 0.145.
Turning to G32A A41G, the self-cleavage came out at 0.183.
Regarding G32C U63C, the self-cleavage is 0.0888.
For the variant G32C U63A, the self-cleavage was determined as 0.208.
Consider G32C U63G, for which the self-cleavage came out at 0.035.
Next, A30U A35G: 0.217; A31U U33G: 0.143; A31U U33C: 0.0766.
As for G32C G51C, the figure is 0.0912; as for G32C G51A, 0.14; as for G32A A71U, 0.155.
On to G32A A71C, for which the self-cleavage is 0.15.
Regarding G32C G40A, the self-cleavage was 0.164.
As for G32A G69U, the figure is 0.161; as for A30G G56C, 0.0815.
As for G32A A45C, the figure is 0.277.
On to G32A A45U, for which the self-cleavage stood at 0.143.
As for A31U U52C, the figure is 0.116.
For A31U U52A, the self-cleavage was 0.048.
In the case of A31U U52G, the self-cleavage stood at 0.117.
As for A30U C37U, the self-cleavage is 0.206.
As to G32C U55G, the self-cleavage stood at 0.0931.
Next, G32C U55A: 0.176; A31U A44G: 0.215; A30G A43G: 0.0977.
For A30G U62A, the self-cleavage worked out at 0.0629.
As for A30G U53A, the figure is 0.0621.
Next, A30G U53C: 0.288; A31C A41C: 0.0332; G32C A41U: 0.101.
In the case of G32C A41C, the self-cleavage stood at 0.0995.
A30C U63A: the self-cleavage stood at 0.267.
Take A30C U63G: the self-cleavage was determined as 0.
As for G32U A39C, the figure is 0.116; as for G32U A39G, 0.0986.
As for A30G U33A, the figure is 0.0512; as for A30G U33G, 0.0952.
Next, A30U G42C: 0.114.
Take A30U G42U: the self-cleavage came to 0.119.
Next, G32A G51C: 0.113; G32A G51U: 0.122; A30G A71C: 0.217.
With A30G A71U, the self-cleavage was found to be 0.225.
In the case of A30G C66U, the self-cleavage stood at 0.1.
As for G32U G42A, the figure is 0.153; as for A31C A36U, 0.0851.
Consider G32U A43U, for which the self-cleavage stood at 0.148.
Consider A31U A39U, for which the self-cleavage stood at 0.12.
As for A31U A39C, the figure is 0.0658.
As for G32C G34U, the figure is 0.163; as for A30U A43U, 0.0952.
Consider A30U A43C, for which the self-cleavage was found to be 0.117.
Take A30U A49U: the self-cleavage was found to be 0.274.
Next, A30U A49G: 0.2; A30U A61G: 0.0939.
As for A31G A41C, the figure is 1.2; as for A30G A36G, 0.0448; as for A30G A36C, 0.
G32C A61U: the self-cleavage was found to be 0.0498.
Next, A31C C65A: 0.0267; A31C C65U: 0.0838; A30G C37G: 0.0733.
Next, G32A U62A: 0.162.
Next, G32A U62C: 0.128.
G32A A36G: the self-cleavage worked out at 0.0788.
For the variant G32A A36U, the self-cleavage was 0.111.
Consider G32A A36C, for which the self-cleavage was determined as 0.145.
Consider G32A U52C, for which the self-cleavage is 0.101.
As for G32A G54A, the figure is 0.156; as for G32A G54U, 0.136; as for A30C U67C, 0.0679.
Regarding A30C U67A, the self-cleavage came to 0.0972.
Next, A30C U67G: 0.109; A31C U55A: 0.0627; A30U U62A: 0.177.
Next, A30U U62C: 0.144; A30U U62G: 0.108.
For A31U U55C, the self-cleavage is 0.0975.
Next, A31G G56A: 0.0841; A30G U67A: 0.215.
Next, A31G A43U: 0.11.
As for G32C A44G, the figure is 0.137; as for A30G A59C, 0.0815; as for A30G A59G, 0.311.
